Values quoted from earlier work, collected in paper PMC10810742.

Target: Ubiquitin (Homo sapiens) (UniProt P0CG47)

Sequence of CteC (Q7NY09 whole entry): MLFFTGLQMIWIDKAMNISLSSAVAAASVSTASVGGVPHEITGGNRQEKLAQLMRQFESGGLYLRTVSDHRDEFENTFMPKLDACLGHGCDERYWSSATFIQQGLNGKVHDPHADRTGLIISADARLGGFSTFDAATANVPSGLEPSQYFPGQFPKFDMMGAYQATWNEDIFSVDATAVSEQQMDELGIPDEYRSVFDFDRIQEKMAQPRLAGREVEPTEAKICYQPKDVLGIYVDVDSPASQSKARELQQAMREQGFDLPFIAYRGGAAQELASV

## CteC (from UniProt Q7NY09)
  Kd: 78.7 µM
